Experimental data as given in article doi:10.1101/298455 (bioRxiv, 2018).

Molecular target: human eIF4E (human, UniProt P06730 1-217)
Assay: ELISA

Sequence of human eIF4E (P06730 whole entry): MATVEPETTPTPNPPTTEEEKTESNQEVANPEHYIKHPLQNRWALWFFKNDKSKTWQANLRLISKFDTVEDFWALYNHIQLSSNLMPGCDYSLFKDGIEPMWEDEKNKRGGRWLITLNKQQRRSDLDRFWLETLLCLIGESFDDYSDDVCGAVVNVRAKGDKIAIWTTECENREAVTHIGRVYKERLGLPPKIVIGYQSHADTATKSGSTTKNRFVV

RKKGKGKGTTVGMGKSSRRFINMYGF [GST-VPg5 fusion protein]: binds.
